{"source": "a protein production outcome set (Wang et al. 2014)", "data": [{"assay": "label from the status in PepcDB records", "values": [{"sequence": "MTIQLLNDRYQVIRTLGAGGFGETYLAEDTYMPSKRRCVVKQLRPIQNNPQIYQLVQERFQREAAILEELGGATEQIPALYAYFSADGQFYLVQEWVEGDTLTGRLQQQGLFTESAIQELLVNLLPVLEYVHSKHIVHRDIKPDNIILRHRDGKPVLIDFGAVRESMGTVVNSQGNPTSSIVIGTPGYMPSEQAAGRPVYSSDLYSLGLTAIYLLTGRQPQTLEIDSQTGEIMWRQYASQMNPILASVLDKAIAYHPRDRYATARAMLDNLQSISSPIPPTQPYFAPPPVVSAPPQPTVPVAPQANVTGNNQKGILFGSLIAGGLIGASVIIGLAFTRTPQPVAENNNTSPVNSITETPVIKATPEVTQPPVTAQPIVPSPQQQVNSSPFPSITSVPIDVNINNNNYLWLSQQAVTDADLDDKDGYTLDIMRNTVFARHGRRFDNPGLQDYFNNQPWYNPIYSPKEFPIKLLTRLEQRNVDYIAAYQKRYNLRHFK", "protein production": "failed"}, {"sequence": "MTISIDRPAPVSSWRTYRRLLAFAKPYRLLLVAALIAALIEAAGTTGFLALMKPITDETFIYKNAEVSRWLPVQIILLFVVRGVAGYITDMAMGKSARSIARDLRIKVMAKYLRLPGSRFDSEPVPSMLIRLGSDSDQVAQAAVDAVKVMIQQSLQVIGALALMLWHSWQVTLTILVLAPVLAWVMDKVARRYRRISHSIQESGAQLLQAADQTLSSHQEVKIYGAQQTEMERYGALANRNLRLAMKVESTRGISTATVQMIGAIGLSALLFVAGAQALAGRLTAGDFVVLMTSMLTIIPGLKQLTNVQNMVQRGLASAERLFSVLDSPDEPDQGTVPLTRAKGLIEFRDVTARYPGQVNPALADVSFVAQPGTVTAIVGRSGSGKSSLIKLIPRFYEAEAGQILLDGHPVQAYALADLRRQIALVGQQVMLFDGSIADNVAFGEMRNADAGKLERAILGANAMEFVAQLPEGLQSHVGTKGGRLSGGQRQRLAIARAMLKDAPVLILDEATAALDNESERLVQDALHKLMPDRTTLVIAHRLSTIEHADQVLVMDQGRIVERGTHHQLLAQGGLYSHLHGMQFRERQA", "protein production": "failed"}, {"sequence": "MTITSKLKKRRSLSTLITKIIILVLAPIILGIFVQSYYFSKQIIWQEVDRTKQQTSALILNIFESHFAAIQIHHDSNSKSDVILDFYSERNEEALNYFFLSIDQSDPSHTPEFRFLTDHQGIIWDDGNAHFYGINDSMLDGLTSKVTFSNNWYYVTSITSMGARHLLLRRVPVLEPKTGEVMGYSYNAVVLDNNFALMEKLKNEGNVDNVVLVANDIPVASSLAGDESYKIFDVLKRKETQKKLDQLLIIQTPIEVNAAITNLKLLTVQDNQSVVTLQIQHFLAMLASVIGMIMIALMTKEWIENRVVEELGSLMSYTRSAREEKGFERFGGSDIEEFDHIGSTLESTFEELEAQKRSFRDLFNFALSPIMVWSEAGVLIQINPAARKELVIENDIETMHPVFKGFKDKLVPHLRMAAQGATLTGVNVPIGDKVFRWNLSPIRVDGDISGIIVQGQDITTLIEAEKQSNLARREAEKSAQARADFLAKMSHEIRTPINGILGVAQLLKDSVEAEEQKNQIDVLRHSGEHLLAVLNDILDFSKIEQGKFNIQKHPFSFADTMRTLENIYRPICENKGVELVIENQLDGNVEIFTDQVRLNQILFNLVSNAVKFTPSGCVRLHAELEQFYGADNSVLVVEISDTGIGIESDKLDEMFEPFVQEEATTTREYGGSGLGLTIVKNLVDMLDGDVQVRSQKGQGTTFVVTLPVKDRERVLAPLDSSQRVKPAELFDESLKVLLVEDNHTNAFILKAFCTKYKMQVDWAKDGLEAMEFLKDHSYDLILMDNQLPHLGGIETTKEIRQNLKLGTPIYACTADTAQETSDAFMEAGANYVLLKPIKENALHEAFVDFKQRFLIERT", "protein production": "failed"}, {"sequence": "MTKCGHSFCYKCIHQSLEDNNRCPKCNYVVDNIDHLYPNFLVNELILKQKQRFEEKRFKLDHSVSSTNGHRWQIFQDWLGTDQDNLDLANVNLMLELLVQKKKQLEAESHAAQLQILMEFLKVARRNKREEMSGLYSPVSEDSTVPQFEAPSPSHSSIIDSTEYSQPPGFSGSSQTKKQPWYNSTLASRRKRLTAHFEDLEQCYFSTRMSRISDDSRTASQLDEFQECLSKFTRYNSVRPLATLSYASDLYNGSSIVSSIEFDRDCDYFAIAGVTKKIKVYEYDTVIQDAVDIHYPENEMTCNSKISCISWSSYHKNLLASSDYEGTVILWDGFTGQRSKVYQEHEKRCWSVDFNLMDPKLLASGSDDAKVKLWSTNLDNSVASIEAKANVCCVKFSPSSRYHLAFGCADHCVHYYDLRNTKQPIMVFKGHRKAVSYAKFVSGEEIVSASTDSQLKLWNVGKPYCLRSFKGHINEKNFVGLASNGDYIACGSENNSLYLYYKGLSKTLLTFKFDTVKSVLDKDRKEDDTNEFVSAVCWRALPDGESNVLIAANSQGTIKVLELV", "protein production": "failed"}, {"sequence": "MTKFYKFLISIIILALVCLIFFLAKSNILNLDSLKNLILSSGYFAPLIYIIAFALVPLTFFPDSVLAILGGSIFGLGGGFLYTSIGALIGGSISFFISRILGQSFVEKFENDKLKNIQELLKDNGFLMILLLRLIPLFPFDLISYGAGLTKISYKDFALGTLIGTIPGILVFVNLGAQWITFNKTSIYLSVSLLILFIIVSVFLKKIYINKHLAKEN", "protein production": "failed"}, {"sequence": "MTKILYMVVPCYNEELVLDETSERLKAKYEQLISNNIISPKSRVVYVNDGSKDKTWEKIQEKHNENPMFSGINLSRNRGHQNALLAGLMTVRNLADCVISMDADLQDDINAIDEMLEKFENENCDIVYGVRDNRDTDTVFKRRTAGAFYKLMQGLGSQSVPNHADFRLMSRRALDGLAQFPEQNLFLRGMVPLVGYKSDIVYYKRGERFAGESKYPLKKMISFALDGITSTSAAPMRLIFWIGLIWFLLAIVGAIYIIARHFINGSDVAGWASTMLAIIGFGGANLLALGVIGEYIGKIFLEVKQRPRYLIEDFINED", "protein production": "failed"}, {"sequence": "MTKLERMEHPAYSQLRPVTPSASVVLCPNPGYSSLEGTNSWVIRAPEDPRSIVIDPGPEDEGHLNVLHSKAEEVGLILLTHRHYDHADGAQRFRQLTNAPVRAMDPSYCAGAEEIHDGEIITIDGVTPQIEVVATPGHTRDSVSYFIWSGVPHESTLEGIVSGDTIAGRHTTMISETDGDLGEYLNSLAILEERGKDIPLLPGHGPDGQDVSSFARKYIERRELRLNQIREVWETRGRDVSMKDLIDAIYDDVDPVLRGAAEQSTHVAIRYLQAQEASASN", "protein production": "failed"}, {"sequence": "MTKLSDRLMEIYRLINQAARVADIGTDHAAIPIALLETNKSSFLVATDIGLGPLEKAKEQIELADLDQAKQIVLRLGDGLSVIKASDKIDTVVIAGMGGELIAKIISKIPDYLKNAKFILQPNNEEIDVRKAIEKNGQYIETEKIIYENRHFYEIIVAKRSQQGIVKMTNRELRFGPCLLKHRTSTFKNKWQERLDHSKQIEKILEKSLRTSTKRYDSLQAEIKTIEEALK", "protein production": "not failed"}, {"sequence": "MTKNDNTIFKDIYQLWFTQYKQTVKESTWVTTQRLFRLHILPIFSDYRIAKISIKDCQKAINQWFNAGLAKYHTLMNYVAKVLDYAINIDLISENPAKRVIVPVNKNDRSLEHHHHHH", "protein production": "not failed"}, {"sequence": "MTKTVEMVITGAQVLNVYTREFEATSLWIDHGRIISNLRDEPYIAAQHVDATGQWIVPGMIDAHVHMESSMVAPSELGKVLLQHGVTTIATDPHELANVAGLEHHHHHH", "protein production": "failed"}, {"sequence": "MTKVERLLINYKTLEEFKKFKEYGIQELSMLEELQDNIIENDSTSPFYGIYFGDKLVARMSLYQVNGKSNPYFDNRQDYLELWKLEVLPGYQNRGYGRALVEFAKSFKMPIRTNPRMKSAEFWNKMNFKTVKYDMARDKGEDPLIWHPDMDREMTPGESA", "protein production": "not failed"}, {"sequence": "MTLAVTAQPALAADRGHSVPLRIATYNIHAGAGSDGVFDLDRQAAALRALDADVIGLQEVDVHWGARSQGLDVAGELARRLGMRVSFAPIYSLDPVTAGEPRREYGVAVLSRFPVRSATNHEITRLSTQDENPLPAPAPGFGEVTLKVRGVPVQVFVTHLDYRADPAVRRAQVADTRRIMARERAELPGAHQFLLGDFNAEPAAPELAPLWKELSDAGAGTPATYPAQAPVKRIDYVTAGKDVRIRRTAVPEEPAASDHRPVVADVSLPRRTPGRD", "protein production": "failed"}, {"sequence": "MTLDLFAPQPKTNLLPYDGDVEDYGCFISTAEAEQYFQYFLKHLAWRHDEARLYGKHFITPRQVAWYGDDHYRYAYSGIMRDSLPWDPQLLILKQQIEQTLAERFNSCLANLYQEGTQGMAWHSDGDMSLAKQTTIASLSLGATRKFCFRHLRTKEKIEMQLQSGQLIVMRGETQQHWQHAIMKSQKVIHPRINLTFRQFLLLEHHHHHH", "protein production": "failed"}, {"sequence": "MTLEWEEFLDPYIQAVGELKIKLRGIRKQYRKQNKHSPIEFVTGRVKPIESIKEKMARRGITYATLEHDLQDIAGLRVMVQFVDDVKEVVDILHKRQDMRIIQERDYITHRKASGYRSYHVVVEYTVDTINGAKTILAEIQIRTLAMNFWATIEHSLNYKYQGDFPDEIKKRLEITARIAHQLDEEMGEIRDDIQEAQALFDPLSRKLNDGVGNSDDTDEEYR", "protein production": "not failed"}, {"sequence": "MTLITVVFVAFALLVIFYTNFMTHTLCERKQIAASRQPGVFRVINVCITILLISSYIEIIFHGK", "protein production": "failed"}, {"sequence": "MTLKTFFNFTRIQTLPAALLSPIAGCLFAFWYFGSFHFWPTLLFFIGLASINLFVSAWNNLMDYQKALDPEYKKWNIIVAKSINPKLALNICLALLAIDVVVGLIVLFLTNLAILPIGGLCFLIAIFYTYGPFAFSRFPLGEILAGLCEGFFGFFLAVYINSYDKGYFFINFDRNWFMTWTWDFKILLPILLVGLMCFVQNFNIMFSDNICDLEQDIRNERYTLPYYLKIPLSLKVFTGLYLFAGLCILIAIALGILPIWSLLMSIIALKVIPNIKKFRAKQSKSETFHLQIDNLMLFNASLALTLLLGIIFK", "protein production": "failed"}, {"sequence": "MTLLEAISNAVANQDKVDSQSDYPIPLSHDGIFANLKPKLENPNLGTLVNPISGWGISESDVEVIDLGKKFSSKLKRKLKDTNGFVKDEFVKMLKQFLEKIGEKVGISEAESEMVLGDQAGSEIQILVEKNGFLMGRDVSGLVLKGCISLEMWELVEILISNSLVDHSSYSYLVSNLVEKQRSDLLCVVIKEASDLGATELLSILKYFLCPSKEAISTMAKVREEWESQAMLAIEKVSNTELSKKSKVAEEASILLMVAHDGFSTSELCLHYLLASRNVDEVMFASAVSKLNGNEMGSFIRYLSKWMKKYEMFPQAGPCPKAASKLGLKLCNWVPELTDITKCLGLLIDENFSTLVLYSDLHEELKSIARVADGLASESKLSCFVANVVESLKLGAARN", "protein production": "failed"}, {"sequence": "MTLLVGLGNPTLRYAHTRHNAGFDILDSLVSELDLSFTFSPKHNAFLCVYKDFIFLKPQTYMNLSGESVLSAKNFYKTKELLIVHDDLDLPLGVVRFKNGGGNGGHNGLKSIDLLCSNSYYRLRVGISKGIGVIEHVLSKFHKNEEPLKNAAFEHAKNALKFFIESHDFNAMQNRFTLKKPLKIES", "protein production": "failed"}, {"sequence": "MTLNRILWNYLIAPTVITIAVCGCTTQTPNTQDLIAQSPKDSQLVRTLSARSDSGYSVAYSPSSVGTILASAGAKSIKLWNPNTGKLLRTLSGQAFTVSFSPDGQILASGSQDGSLNLWDVQTGKLIRTLQHSEPVLGVVFSPDGQTLVSNLDLGSIIRLWNWRTGEIIRIKDDPDAYQKGFENFKTQPATFSLDGQTLFATSGSGSMLQSWNLKTSKRTGSFDAKSSINAVAISPDGNTLATGIRDNAIKLWNINDGKLIHTLTGHQGQVRTVAFSPDGTLLASGSSDGTVKLWNATTGKEINTFTAHKEQVWSVAFNPDGKTLASTGQDGSVKIWGVSPQ", "protein production": "failed"}, {"sequence": "MTLQLNFGRVEDMNKSSLTTTALTILRVIAGFLFAAHGWQKFNEFTIAGTQASFTQMGVPGASAVAPIVATLELVGGIALIIGLLTRVFAALLAVNMLGALFLVHAPAGVFVGNGGYELVLLFAGAALALALAGAGRISADAALFGRQSSKLRVLA", "protein production": "failed"}]}]}
